Molecular target: the molecule itself
Test: AUC

B1: Neurotrimin (NTM) extracellular domain, a.a. 36-311, with C-terminal linker and hexahistidine tag (domain or fragment, human, UniProt Q9P121 36-311, looked up)
chain: ATFPKAMDNVTVRQGESATLRCTIDNRVTRVAWLNRSTILYAGNDKWCLDPRVVLLSNTQTQYSIEIQNVDVYDEGPYTCSVQTDNHPKTSRVHLIVQVSPKIVEISSDISINEGNNISLTCIATGRPEPTVTWRHISPKAVGFVSEDEYLEIQGITREQSGDYECSASNDVAAPVVRRVKVTVNYPPYISEAKGTGVPVGQKGTLQCEASAVPSAEFQWYKDDKRLIEGKKGVKVENRPFLSKLIFFNVSEHDYGNYTCVASNKLGHTNASIMLF
modifications: N-linked glycosylation (extensive)
stoichiometry N: 2

Reference: article PMC7502549 (Journal of molecular biology, 2020)
